# Measured values as given in patent publication US20230002480A1.
# Assays:
# [1] = target: HIV-1 Env of pseudovirus 191955_A11 (clade A, T/F) (HIV-1); experiment: cell-based or functional assay
# [2] = target: HIV-1 Env of pseudovirus 3016.v5.c45 (clade D) (HIV-1); experiment: cell-based or functional assay
# [3] = target: HIV-1 Env of pseudovirus 3103.v3.c10 (clade ACD) (HIV-1); experiment: cell-based or functional assay
# [4] = target: HIV-1 Env of pseudovirus 620345.c01 (clade CRF01_AE) (HIV-1); experiment: cell-based or functional assay
# [5] = target: HIV-1 Env of pseudovirus 62357_14_D3_4589 (clade B, T/F) (HIV-1); experiment: cell-based or functional assay
# [6] = target: HIV-1 Env of pseudovirus 6545.v4.c1 (HIV-1); experiment: cell-based or functional assay
# [7] = target: HIV-1 Env of pseudovirus 6952.v1.c20 (clade CD) (HIV-1); experiment: cell-based or functional assay
# [8] = target: HIV-1 Env of pseudovirus AC10.0.29 (clade B) (HIV-1); experiment: cell-based or functional assay
# [9] = target: HIV-1 Env of pseudovirus BJOX028000.10.3 (clade CRF01_AE, T/F) (HIV-1); experiment: cell-based or functional assay
# [10] = target: HIV-1 Env of pseudovirus CAP210.2.00.E8 (clade C) (HIV-1); experiment: cell-based or functional assay
# [11] = target: HIV-1 Env of pseudovirus CNE20 (clade BC) (HIV-1); experiment: cell-based or functional assay
# [12] = target: HIV-1 Env of pseudovirus Ce1086_B2 (clade C, T/F) (HIV-1); experiment: cell-based or functional assay
# [13] = target: HIV-1 Env of pseudovirus Ce1172_H1 (clade C, T/F) (HIV-1); experiment: cell-based or functional assay
# [14] = target: HIV-1 Env of pseudovirus Du172.17 (clade C) (HIV-1); experiment: cell-based or functional assay
# [15] = target: HIV-1 Env of pseudovirus Du422.1 (clade C) (HIV-1); experiment: cell-based or functional assay
# [16] = target: HIV-1 Env of pseudovirus PVO.4 (clade B) (HIV-1); experiment: cell-based or functional assay
# [17] = target: HIV-1 Env of pseudovirus Q259.d2.17 (clade A) (HIV-1); experiment: cell-based or functional assay
# [18] = target: HIV-1 Env of pseudovirus R1166.c01 (clade CRF01_AE) (HIV-1); experiment: cell-based or functional assay
# [19] = target: HIV-1 Env of pseudovirus T250-4 (clade CRF02_AG) (HIV-1); experiment: cell-based or functional assay
# [20] = target: HIV-1 Env of pseudovirus X1254_c3 (clade G) (HIV-1); experiment: cell-based or functional assay
# [21] = target: HIV-1 Env of pseudovirus X2088_c9 (clade G) (HIV-1); experiment: cell-based or functional assay
# [22] = target: MuLV Env pseudovirus (negative control) (MuLV); experiment: cell-based or functional assay
# [23] = target: HIV-1 93TH057 gp120 coree (HIV-1); experiment: PDB 5te6 structure, PISA interface
substance,measurement,setting,value
N49P7YTE (antibody),"IC50, titer in TZM.bl cells",[1],39 µg/mL
same,"IC80, titer in TZM.bl cells",[1],> 50 µg/mL
same,MPI,[1],56
same,"IC50, titer in TZM.bl cells",[2],1.15 µg/mL
same,"IC80, titer in TZM.bl cells",[2],9.65 µg/mL
same,MPI,[2],89
same,"IC50, titer in TZM.bl cells",[3],0.322 µg/mL
same,"IC80, titer in TZM.bl cells",[3],0.583 µg/mL
same,MPI,[3],100
same,"IC50, titer in TZM.bl cells",[4],> 50 µg/mL
same,"IC80, titer in TZM.bl cells",[4],> 50 µg/mL
same,MPI,[4],0
same,"IC50, titer in TZM.bl cells",[5],0.039 µg/mL
same,"IC80, titer in TZM.bl cells",[5],0.173 µg/mL
same,MPI,[5],100
same,"IC50, titer in TZM.bl cells",[6],> 50 µg/mL
same,"IC80, titer in TZM.bl cells",[6],> 50 µg/mL
same,MPI,[6],45
same,"IC50, titer in TZM.bl cells",[7],> 50 µg/mL
same,"IC80, titer in TZM.bl cells",[7],> 50 µg/mL
same,MPI,[7],13
same,"IC50, titer in TZM.bl cells",[8],> 50 µg/mL
same,"IC80, titer in TZM.bl cells",[8],> 50 µg/mL
same,MPI,[8],28
same,"IC50, titer in TZM.bl cells",[9],0.018 µg/mL
same,"IC80, titer in TZM.bl cells",[9],0.155 µg/mL
same,MPI,[9],100
same,"IC50, titer in TZM.bl cells",[10],3.11 µg/mL
same,"IC80, titer in TZM.bl cells",[10],13.9 µg/mL
same,MPI,[10],99
same,"IC50, titer in TZM.bl cells",[11],0.11 µg/mL
same,"IC80, titer in TZM.bl cells",[11],0.317 µg/mL
same,MPI,[11],99
same,"IC50, titer in TZM.bl cells",[12],0.113 µg/mL
same,"IC80, titer in TZM.bl cells",[12],0.53 µg/mL
same,MPI,[12],99
same,"IC50, titer in TZM.bl cells",[13],> 50 µg/mL
same,"IC80, titer in TZM.bl cells",[13],> 50 µg/mL
same,MPI,[13],12
same,"IC50, titer in TZM.bl cells",[14],0.283 µg/mL
same,"IC80, titer in TZM.bl cells",[14],0.953 µg/mL
same,MPI,[14],100
same,"IC50, titer in TZM.bl cells",[15],13.2 µg/mL
same,"IC80, titer in TZM.bl cells",[15],> 50 µg/mL
same,MPI,[15],76
same,"IC50, titer in TZM.bl cells",[16],0.088 µg/mL
same,"IC80, titer in TZM.bl cells",[16],0.394 µg/mL
same,MPI,[16],100
same,"IC50, titer in TZM.bl cells",[17],5.34 µg/mL
same,"IC80, titer in TZM.bl cells",[17],44.1 µg/mL
same,MPI,[17],82
same,"IC50, titer in TZM.bl cells",[18],0.232 µg/mL
same,"IC80, titer in TZM.bl cells",[18],0.782 µg/mL
same,MPI,[18],100
same,"IC50, titer in TZM.bl cells",[19],> 50 µg/mL
same,"IC80, titer in TZM.bl cells",[19],> 50 µg/mL
same,MPI,[19],43
same,"IC50, titer in TZM.bl cells",[20],26.2 µg/mL
same,"IC80, titer in TZM.bl cells",[20],> 50 µg/mL
same,MPI,[20],59
same,"IC50, titer in TZM.bl cells",[21],0.329 µg/mL
same,"IC80, titer in TZM.bl cells",[21],1.06 µg/mL
same,MPI,[21],100
same,"IC50, titer in TZM.bl cells",[22],> 50 µg/mL
same,"IC80, titer in TZM.bl cells",[22],> 50 µg/mL
same,MPI,[22],4
N6 Fab,Ratio of OD/ID buried surface area,[23],7.58
same,"buried surface area, CDR H1",[23],38 Å^2
same,"buried surface area, CDR H2",[23],621 Å^2
same,"buried surface area, CDR L1",[23],43 Å^2
same,"buried surface area, CDR L2",[23],0 Å^2
same,"buried surface area, CDR L3",[23],172 Å^2
same,"buried surface area, CDRH3",[23],123 Å^2
same,"buried surface area, Fab heavy and light chain total",[23],1180 Å^2
same,"buried surface area, Fab heavy chain total",[23],928 Å^2
same,"buried surface area, Fab light chain total",[23],251 Å^2
same,"buried surface area, gp120 CD4 binding loop of OD",[23],206 Å^2
same,"buried surface area, gp120 Loop D of OD",[23],332 Å^2
same,"buried surface area, gp120 Loop V5 of OD",[23],339 Å^2
same,"buried surface area, gp120 inner domain (ID)",[23],132 Å^2
same,"buried surface area, gp120 outer domain (OD)",[23],1000 Å^2
same,"buried surface area, gp120 total",[23],1130 Å^2
same,"buried surface area, heavy chain FWR",[23],146 Å^2
same,"buried surface area, light chain FWR",[23],36 Å^2
